Legend:
[1] = target: SARS-CoV-2 Spike glycoprotein (WH-1), trimeric, HEK293-produced (S1+S2) (SARS-CoV-2) (UniProt P0DTC2); assay: ELISA
[2] = target: baculovirus-produced trimeric Spike (SARS-CoV-2) (UniProt P0DTC2); assay: ITC
[3] = target: SARS-CoV-2 Spike glycoprotein (WH-1), trimeric, HEK293-produced (S1+S2) (SARS-CoV-2) (UniProt P0DTC2); assay: ITC
[4] = target: SARS-CoV-2 Spike glycoprotein (Omicron), trimeric, HEK293-produced (SARS-CoV-2) (UniProt P0DTC2); assay: ITC

Sequence of cyanovirin-N (P81180 whole entry): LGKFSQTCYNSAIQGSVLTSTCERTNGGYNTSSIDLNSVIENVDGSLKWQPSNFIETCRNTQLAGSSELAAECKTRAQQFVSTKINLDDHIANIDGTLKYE

Substance “cyanovirin-N (from UniProt P81180 1-101) (natural protein)” has an EC50 [1] of 2.9 nM, a Kd [2] of 13.4 nM and a stoichiometry N (CV-N per Spike monomer) [2] of 2.4. For the same substance, the Kd [3] was 28.1 nM, the stoichiometry N (CV-N per Spike monomer) [3] was 2 and the Kd [4] was 15.4 nM. For the same substance, the stoichiometry N (CV-N per Spike monomer) [4] was 2.

From PMC10013841
